The results in this text go back to PMC6589164.

The term Kd denotes the equilibrium constant for the complex coming apart. As usually defined, the stoichiometry N is a count of units in the complex or per binding partner.

Test [1] has as its target pyrene-labelled rabbit skeletal F-actin (rabbit) (UniProt P68135). Description: other fluorescence titration.
The target of test [2] is RLC-depleted porcine cardiac myosin (porcine) (UniProt P79293). Description: co-sedimentation.

“A13T-RLC-reconstituted porcine cardiac myosin (from UniProt P79293 1-1935; P10916 1-166) (complex)”: in test [1], the Kd was determined as 0.0244 µM and the stoichiometry N turned out to be 0.9.

Regarding “WT-RLC-reconstituted porcine cardiac myosin (from UniProt P79293 1-1935; P10916 1-166) (complex)”, in test [1], the Kd turned out to be 0.0189 µM and the stoichiometry N stood at 0.8.

B1: recombinant human cardiac (ventricular) myosin regulatory light chain, wild type (natural protein)
chain: MAPKKAKKRAGGANSNVFSMFEQTQIQEFKEAFTIMDQNRDGFIDKNDLRDTFAALGRVNVKNEEIDEMIKEAPGPINFTVFLTMFGEKLKGADPEETILNAFKVFDPEGKGVLKADYVREMLTTQAERFSKEEVDQMFAAFPPDVTGNLDYKNLVHIITHGEEKD
Regarding B1, the equilibrium dissociation constant (Kd) in test [2] is 2.92 µM.

B2: recombinant human cardiac (ventricular) myosin regulatory light chain, A13T mutant (natural protein)
chain: MAPKKAKKRAGGTNSNVFSMFEQTQIQEFKEAFTIMDQNRDGFIDKNDLRDTFAALGRVNVKNEEIDEMIKEAPGPINFTVFLTMFGEKLKGADPEETILNAFKVFDPEGKGVLKADYVREMLTTQAERFSKEEVDQMFAAFPPDVTGNLDYKNLVHIITHGEEKD
The molecule B2 displayed a Kd in test [2] of 8.14 µM.
